Measured values published in paper doi:10.1101/2025.06.17.660173, “Twinfilin is a potent uncapper of actin capping protein and modulates actomyosin contractility in the C. elegans spermatheca” (bioRxiv, 2025).

Molecular target: T1, biotinylated SNAP tagged C. elegans heterodimeric capping protein (CAP-1/CAP-2) (C. elegans, UniProt P34685 1-282; P34686 1-270, biotin on the SNAP tag (benzylguanine-biotin); the subunit that carries it is not stated | biotin on the SNAP tag (benzylguanine-biotin); the subunit that carries it is not stated)
T1 construct: CAP-1, a capping protein subunit of C. elegans; CAP-2, a capping protein subunit of C. elegans; The complex was anchored to streptavidin-coated coverslips by the biotin; also called SNAP-CP; CP; source: E. coli BL21 DE3, purified (HisTrap, Superose 6), labelled with benzylguanine-biotin; not shown: His tag (from the HisTrap purification)
T1 sequence (looked up) 1: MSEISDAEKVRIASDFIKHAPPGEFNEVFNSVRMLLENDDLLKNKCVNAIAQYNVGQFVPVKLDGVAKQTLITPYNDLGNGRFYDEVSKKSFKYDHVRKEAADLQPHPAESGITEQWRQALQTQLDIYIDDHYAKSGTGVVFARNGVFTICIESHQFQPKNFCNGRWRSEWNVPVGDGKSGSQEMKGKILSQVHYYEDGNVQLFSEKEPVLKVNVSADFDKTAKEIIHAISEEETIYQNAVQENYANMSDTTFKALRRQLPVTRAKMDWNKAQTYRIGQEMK
T1 sequence (looked up) 2: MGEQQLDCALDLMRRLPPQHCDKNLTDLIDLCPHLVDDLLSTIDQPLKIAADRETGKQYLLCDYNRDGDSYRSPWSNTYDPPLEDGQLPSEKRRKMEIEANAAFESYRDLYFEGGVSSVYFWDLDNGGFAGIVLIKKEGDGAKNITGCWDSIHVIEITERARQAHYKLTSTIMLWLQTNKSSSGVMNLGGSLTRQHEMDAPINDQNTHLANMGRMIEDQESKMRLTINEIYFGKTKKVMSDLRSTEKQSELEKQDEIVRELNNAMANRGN
Assay: mf-TIRF microscopy uncapping assay; biotinylated SNAP-CP anchored to the coverslip; preformed Alexa-488-labelled (15%) ADP-actin filaments captured; filament detachment followed with and without TWF-2 in TIRF buffer (10 mM imidazole pH 7.4, 50 mM KCl, 1 mM MgCl2, 1 mM EGTA, 0.2 mM ATP, 10 mM DTT); survival fitted to a single exponential
Conditions: both partners purified

B1: C. elegans TWF-2 (6×His-tagged), recombinant (natural protein, UniProt Q20173 1-333, looked up)
chain: MACQTGIRANAALRNALNLGKQAKLRLIKIVVNNEEMTPNYEFAGTANWRDDWRACLPDCVDAYEPCFILFRLNTITEWVLITFVDDRAPVREKMLLAATCATFKSEFGQCYIEHEKHVTDLKDLTLNAFEAWLKAKTELGPMSEVERELHNAQQERAAIAHAGPQHMKGVAFPVDRNAEEALRQLASQKLSFVQLSVDTLNEAIKLEGTLESLEPSQLASKVPRDKPRYTFYNFDHTWEGVPQQCTLFIYSLPSSGSSIKERMLYSSCKGPFLSAAQNQYGVVITNKMEVDARDDLSEKALLEVIHPLPVEAPKQFSRPAPPRAGPRRITKV
notes: TWF-2, the sole twinfilin ortholog of C. elegans; also called twinfilin; C. elegans twinfilin; source: E. coli BL21 (pRare), purified (Ni-NTA, Superdex 75 Increase)
For B1, the “fold acceleration of uncapping of CP from actin filaments” value was over 90 fold.
